The values that follow come from the RNAGym collection of RNA variant scans (doi:10.1073/pnas.2313332121).

The labels stand for the following.
B1: TPR t1 (parent)
chain: GACCAAUCUGCCCUCAGAGCUCGAGAACAUCUUCGGAUGCAGAGGAGGCAGGCUUCGGUGGCGCGAUAGCGCCAACGUCCUCAACCUCCAAUGCAUCCCACCACAUGAUGAUGCCUGAAGAGCCUUGGUUUUUUG

The variants in this data set derive from B1. Briefly: polymerase ribozyme fitness, log enrichment relative to wild type (log ratio); higher = more active; in vitro selection for triplet polymerase activity. In outline:
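Fitness compares each genotype's enrichment to that of the wild type on a logarithmic scale, averaging replicates with inverse-variance weights. The logarithm is base 2. Enrichment came from Illumina sequencing of input and output libraries after one triplicate round of in vitro selection, which included frozen incubation at −7 °C, of PCR-built, transcribed mutant libraries of each subunit of a heterodimeric triplet polymerase ribozyme. Only genotypes with ≥10 input reads and ≥1 read per output were kept.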
For the variant U96A C98U, the “polymerase ribozyme fitness (log ratio)” value was -3.4.
On to A83C A84C, for which the “polymerase ribozyme fitness (log ratio)” value is -0.925.
In the case of C89G U126A, the “polymerase ribozyme fitness (log ratio)” value was -2.85.
As to C89G C124A, the “polymerase ribozyme fitness (log ratio)” value turned out to be 0.877.
The value for A95G G117C was -3.87; that for C86U G110A A111C was -4.3; that for A84G U106G was -3.32.
Take G93U G128C: the “polymerase ribozyme fitness (log ratio)” value is -4.57.
In the case of A84C C88A, the “polymerase ribozyme fitness (log ratio)” value was -0.593.
C89A C124A: the “polymerase ribozyme fitness (log ratio)” value was found to be 0.985.
The value for C82U A90U C97U A118G was -2.4; that for C89A G93A was -2.99.
The value for G93A G128C was -2.72; that for G93A G128A was -1.95.
Take C88A G113C G122A U129A: the “polymerase ribozyme fitness (log ratio)” value is -5.29.
The value for U92A C104U was -3.56; that for G93A C98U was -1.72.
The result for C89A G120U reads -1.79; that for C88G U131C, -0.249; that for A91C C98G G113A, -5.51.
On to C88G C94A A111C U133A, for which the “polymerase ribozyme fitness (log ratio)” value was -3.52.
Consider A90C C97U G113A, for which the “polymerase ribozyme fitness (log ratio)” value is -2.12.
The result for C86U U131G reads -0.498; that for C86U A111G C123A G127A, -2.33.
The result for A95C U116C U129A U131C G135U reads -3; that for A90U C114G A118G, -3.15.
The result for C86A U112A reads 0.808; that for C85U A108U C123G, -6.32.
C88U A105G C123U: the “polymerase ribozyme fitness (log ratio)” value is -1.46.
C88U G120C: the “polymerase ribozyme fitness (log ratio)” value stood at 0.853.
The value for C88U G120U was 0.291.
The result for C86G A91G reads -1.96.
The value for U87A A119U G128A U131G was -1.07; that for G93A G110U was -2.04; that for C89A C114G was -2.82.
In the case of C89A C114U, the “polymerase ribozyme fitness (log ratio)” value was -0.329.
Regarding G93A C123G, the “polymerase ribozyme fitness (log ratio)” value came to 0.42.
The result for U87G G120A reads 0.0419; that for A83U C89U U96C U131G, -1.02.
In the case of C82U U109G U130G, the “polymerase ribozyme fitness (log ratio)” value is -6.23.
For the variant C88A C94G U112C G120C, the “polymerase ribozyme fitness (log ratio)” value was -1.09.
In the case of C88U A100U G120A, the “polymerase ribozyme fitness (log ratio)” value is -0.615.
The result for C89A C101A G117A reads -5; that for C85A U112A C115U U130C, -2.28; that for C85U U133A, -0.839.
Take A83U U133G: the “polymerase ribozyme fitness (log ratio)” value was -0.873.
With C85A G117A, the “polymerase ribozyme fitness (log ratio)” value is -2.97.
The result for U92C U112A reads -0.53; that for C89U A105U, -2.8.
Regarding C94A C101G, the “polymerase ribozyme fitness (log ratio)” value is -2.45.
For U96A G120C, the “polymerase ribozyme fitness (log ratio)” value was found to be 0.228.
As for A83G C86G G127U U132C, the “polymerase ribozyme fitness (log ratio)” value is -2.25.
The result for A95C U106A C124U reads 1.29; that for A95U G113U U125A, -3.81.
The result for C85U A100C reads -1.76; that for C85U A100U, -1.79.
The value for C89G C123G was 0.45.
Take A83G A84U C102A U112A G127U: the “polymerase ribozyme fitness (log ratio)” value is -3.04.
On to A83U G113C G120U U132A, for which the “polymerase ribozyme fitness (log ratio)” value was -4.48.
The value for A90C C104A was -3.78.
Turning to C94A, the “polymerase ribozyme fitness (log ratio)” value was -0.804.
The value for C94U was -0.383; that for C94G was -0.92.
The value for A84U U112C was 1.2.
In the case of U92G G122U C124U U126C, the “polymerase ribozyme fitness (log ratio)” value was -5.41.
As for C86U A91G C98U, the “polymerase ribozyme fitness (log ratio)” value was -2.63.
The result for C89U A90G reads 0.141.
The result for C86A C98U reads -0.468.
Take C86U G110U: the “polymerase ribozyme fitness (log ratio)” value is -1.02.
Turning to G93C C102A, the “polymerase ribozyme fitness (log ratio)” value is -2.96.
The result for U87A A111G G127C U131A reads -3.23; that for C85G U131A, -1.92.
For the variant A90G U112G, the “polymerase ribozyme fitness (log ratio)” value stood at 1.3.
The result for C88U C104U reads 0.689; that for C89G G93A C94G C124G G128C, -7.66; that for C94G U109A, -6.28.
The value for A90U C97U was -2.38; that for A84U C123A was -0.143; that for A91C U129A was -2.78.
As for A84G G93C G127U, the “polymerase ribozyme fitness (log ratio)” value was -1.68.
The result for C88A G135U reads -0.929; that for C86G U112A G117U G120A U126A, -5.82; that for C82U U96G G127U, -1.83.
The value for A95G C104A U109C C114U C124A was -2.73.
